This assay addresses CXCR4 (full-length receptor) (UniProt P61073). Nature of the assay: cell-based or functional assay.
Chain of CXCR4 (full-length receptor) (P61073 whole entry): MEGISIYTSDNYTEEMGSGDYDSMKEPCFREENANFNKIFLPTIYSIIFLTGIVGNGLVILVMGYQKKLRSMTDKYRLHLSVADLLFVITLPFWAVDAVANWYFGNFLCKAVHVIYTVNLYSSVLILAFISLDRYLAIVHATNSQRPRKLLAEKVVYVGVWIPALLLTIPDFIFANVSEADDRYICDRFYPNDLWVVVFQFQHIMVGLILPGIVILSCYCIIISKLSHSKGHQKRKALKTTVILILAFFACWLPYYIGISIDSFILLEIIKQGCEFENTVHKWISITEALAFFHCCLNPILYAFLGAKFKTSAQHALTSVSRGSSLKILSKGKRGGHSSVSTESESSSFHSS
On to “CXCL12 Asn33 to alanine mutant (from UniProt P48061 22-89) (ligand)”, for which the calcium flux EC50 against unmutated CXCL12 stood at 6 fold. As for “CXCL12 Asn33 to arginine mutant (from UniProt P48061 22-89) (ligand)”, the figure is 6 fold. For “CXCL12 Asn33 to glutamine mutant (from UniProt P48061 22-89) (ligand)”, the calcium flux EC50 against unmutated CXCL12 was 6 fold.

Source of the values: patent publication US9908923.
